From the supplement of paper PMC5998384 come the findings set out here.

Data set [1] relates to HeLa Kyoto. In words: solubility in G1/S (NP-40 vs SDS abundance) (log2 ratio); higher = more soluble. As to conditions: cell cycle stage: G1/S.
The subject of data set [2] is HeLa Kyoto. In words: melting temperature (median over replicates), in situ; higher = more thermally stable.
The test system of data set [3] is HeLa Kyoto. Description: solubility change mitosis vs G1/S (difference of NP-40 vs SDS log2 ratios) (log2 ratio difference); higher = more soluble in mitosis.
Data set [4] has as its system HeLa Kyoto. In words: thermal stability score vs G1/S (z-score of summed log2 fold changes over temperatures); higher = more thermally stable than in G1/S.
[5] abbreviates: cell cycle stage: early G1 (4.5 h after nocodazole release).
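Wherever melting temperature (median over replicates), in situ is given: HeLa Kyoto cells synchronized by double thymidine or nocodazole block, proteins quantified by TMT10plex mass spectrometry, three independent biological replicates.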
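Wherever solubility change mitosis vs G1/S (difference of NP-40 vs SDS log2 ratios) is given: synchronized HeLa Kyoto cells (double thymidine block for G1/S, nocodazole release for mitosis), protein amounts in NP-40 versus SDS lysates quantified by mass spectrometry, three biological replicates.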
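Wherever solubility in G1/S (NP-40 vs SDS abundance) is given: HeLa Kyoto cells arrested at G1/S by double thymidine block, proteins quantified by TMT10plex mass spectrometry in mild NP-40 versus SDS extracts, three biological replicates.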
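Wherever thermal stability score vs G1/S (z-score of summed log2 fold changes over temperatures) is given: synchronized HeLa Kyoto cells, proteins quantified by TMT10plex mass spectrometry, three biological replicates, mitosis taken 0.5 h after nocodazole release, G1/S directly after double thymidine block.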

In the case of “MNGRVDYLVTEEEINLTRGPSGLGFNIVGGTDQQYVSNDSGIYVSRIKENGAAALDGRLQEGDKILSVNGQDLKNLLHQDAVDLFRNAGYAVSLRVQHRLQVQNGPIGHRGEGDPSGIPIFMVLVPVFALTMVAAWAFMRYRQQL [SYNJ2BP]”, the “solubility in G1/S (log2)” value in the data set on HeLa Kyoto [1] worked out at 0.0992. Also, the melting temperature with HeLa Kyoto [2] (cell cycle stage: G1/S) and in the data set on HeLa Kyoto [2] (cell cycle stage: mitosis) was 51.6 °C throughout. The “solubility change mitosis (log2)” value in the data set with HeLa Kyoto [3] was -0.0614. In addition, the thermal stability score with HeLa Kyoto [4] (setting [5]) was 1.82; in the data set with HeLa Kyoto [4] (cell cycle stage: mitosis) it was 1.39.
In the case of “MNHDFQALALESRGMGELLPTKKFWEPDDSTKDGQKGIFLGDDEWRETAWGASHHSMSQPIMVQRRSGQGFHGNSEVNAILSPRSESGGLGVSMVEYVLSSSPADKLDSRFRKGNFGTRDAETDGPEKGDQKGKASPFEEDQNRDLKQGDDDDSKINGRGLPNGMDADCKDFNRTPGSRQASPTEVVERLGPNTNPSEGLGPLPNPTANKPLVEEFSNPETQNLDAMEQVGLESLQFDYPGNQVPMDSSGATVGLFDYNSQQQLFQRTNALTVQQLTAAQQQQYALAAAQQPHIAGVFSAGLAPAAFVPNPYIISAAPPGTDPYTAAGLAAAATLAGPAVVPPQYYGVPWGVYPANLFQQQAAAAANNTASQQAASQAQPGQQQVLRAGAGQRPLTPNQGQQGQQAESLAAAAAANPTLAFGQGLATGMPGYQVLAPTAYYDQTGALVVGPGARTGLGAPVRLMAPTPVLISSAAAQAAAAAAAGGTASSLTGSTNGLFRPIGTQPPQQQQQQPSTNLQSNSFYGSSSLTNSSQSSSLFSHGPGQPGSTSLGFGSGNSLGAAIGSALSGFGSSVGSSASSSATRRESLSTSSDLYKRSSSSLAPIGQPFYNSLGFSSSPSPIGMPLPSQTPGHSLTPPPSLSSHGSSSSLHLGGLTNGSGRYISAAPGAEAKYRSASSTSSLFSSSSQLFPPSRLRYNRSDIMPSGRSRLLEDFRNNRFPNLQLRDLIGHIVEFSQDQHGSRFIQQKLERATPAERQMVFNEILQAAYQLMTDVFGNYVIQKFFEFGSLDQKLALATRIRGHVLPLALQMYGCRVIQKALESISSDQQVISEMVKELDGHVLKCVKDQNGNHVVQKCIECVQPQSLQFIIDAFKGQVFVLSTHPYGCRVIQRILEHCTAEQTLPILEELHQHTEQLVQDQYGNYVIQHVLEHGRPEDKSKIVSEIRGKVLALSQHKFASNVVEKCVTHASRAERALLIDEVCCQNDGPHSALYTMMKDQYANYVVQKMIDMAEPAQRKIIMHKIRPHITTLRKYTYGKHILAKLEKYYLKNSPDLGPIGGPPNGML [PUM2]”, the “solubility in G1/S (log2)” value in the data set with HeLa Kyoto [1] amounted to 0.446. The melting temperature in the data set with HeLa Kyoto [2] (cell cycle stage: G1/S) came out at 54 °C; in the data set on HeLa Kyoto [2] (cell cycle stage: mitosis), 50.2 °C. Further, the “solubility change mitosis (log2)” value in the data set with HeLa Kyoto [3] is -0.11. Further, the thermal stability score in the data set with HeLa Kyoto [4] (setting [5]) amounted to 1.8; in the data set on HeLa Kyoto [4] (cell cycle stage: mitosis), 1.49.
Regarding “MNKLRQSFRRKKDVYVPEASRPHQWQTDEEGVRTGKCSFPVKYLGHVEVDESRGMHICEDAVKRLKAERKFFKGFFGKTGKKAVKAVLWVSADGLRVVDEKTKDLIVDQTIEKVSFCAPDRNFDRAFSYICRDGTTRRWICHCFMAVKDTGERLSHAVGCAFAACLERKQKREKECGVTATFDASRTTFTREGSFRVTTATEQAEREEIMKQMQDAKKAETDKIVVGSSVAPGNTAPSPSSPTSPTSDATTSLEMNNPHAIPRRHAPIEQLARQGSFRGFPALSQKMSPFKRQLSLRINELPSTMQRKTDFPIKNAVPEVEGEAESISSLCSQITNAFSTPEDPFSSAPMTKPVTVVAPQSPTFQANGTDSAFHVLAKPAHTALAPVAMPVRETNPWAHAPDAANKEIAATCSGTEWGQSSGAASPGLFQAGHRRTPSEADRWLEEVSKSVRAQQPQASAAPLQPVLQPPPPTAISQPASPFQGNAFLTSQPVPVGVVPALQPAFVPAQSYPVANGMPYPAPNVPVVGITPSQMVANVFGTAGHPQAAHPHQSPSLVRQQTFPHYEASSATTSPFFKPPAQHLNGSAAFNGVDDGRLASADRHTEVPTGTCPVDPFEAQWAALENKSKQRTNPSPTNPFSSDLQKTFEIEL [NUMB]”, the “solubility in G1/S (log2)” value in the data set on HeLa Kyoto [1] was -0.0586. Moreover, the values for the melting temperature with HeLa Kyoto [2] (cell cycle stage: G1/S) and in the data set on HeLa Kyoto [2] (cell cycle stage: mitosis) were 51.9 °C and 51.4 °C, respectively. Moreover, the “solubility change mitosis (log2)” value with HeLa Kyoto [3] is -0.132. The values for the thermal stability score in the data set on HeLa Kyoto [4] (setting [5]) and with HeLa Kyoto [4] (cell cycle stage: mitosis) were 0.0697 and 0.793, respectively.
For the sequence “MNLFNLDRFRFEKRNKIEEAPEATPQPSQPGPSSPISLSAEEENAEGEVSRANTPDSDITEKTEDSSVPETPDNERKASISYFKNQRGIQYIDLSSDSEDVVSPNCSNTVQEKTFNKDTVIIVSEPSEDEESQGLPTMARRNDDISELEDLSELEDLKDAKLQTLKELFPQRSDNDLLKLIESTSTMDGAIAAALLMFGDAGGGPRKRKLSSSSEPYEEDEFNDDQSIKKTRLDHGEESNESAESSSNWEKQESIVLKLQKEFPNFDKQELREVLKEHEWMYTEALESLKVFAEDQDMQYVSQSEVPNGKEVSSRSQNYPKNATKTKLKQKFSMKAQNGFNKKRKKNVFNPKRVVEDSEYDSGSDVGSSLDEDYSSGEEVMEDGYKGKILHFLQDASIGELTLIPQCSQKKAQKITELRPFNSWEALFTKMSKTNGLSEDLIWHCKTLIQERDVVIRLMNKCEDISNKLTKQVTMLTGNGGGWNIEQPSILNQSLSLKPYQKVGLNWLALVHKHGLNGILADEMGLGKTIQAIAFLAYLYQEGNNGPHLIVVPASTIDNWLREVNLWCPTLKVLCYYGSQEERKQIRFNIHSRYEDYNVIVTTYNCAISSSDDRSLFRRLKLNYAIFDEGHMLKNMGSIRYQHLMTINANNRLLLTGTPVQNNLLELMSLLNFVMPHMFSSSTSEIRRMFSSKTKSADEQSIYEKERIAHAKQIIKPFILRRVKEEVLKQLPPKKDRIELCAMSEKQEQLYLGLFNRLKKSINNLEKNTEMCNVMMQLRKMANHPLLHRQYYTAEKLKEMSQLMLKEPTHCEANPDLIFEDMEVMTDFELHVLCKQYRHINNFQLDMDLILDSGKFRVLGCILSELKQKGDRVVLFSQFTMMLDILEVLLKHHQHRYLRLDGKTQISERIHLIDEFNTDMDIFVFLLSTKAGGLGINLTSANVVILHDIDCNPYNDKQAEDRCHRVGQTKEVLVIKLISQGTIEESMLKINQQKLKLEQDMTTVDEGDEGSMPADIATLLKTSMGL [SMARCAD1]”, the “solubility in G1/S (log2)” value with HeLa Kyoto [1] was -0.1. In addition, the melting temperature with HeLa Kyoto [2] (cell cycle stage: G1/S) was found to be 48.4 °C; with HeLa Kyoto [2] (cell cycle stage: mitosis), 49.7 °C. The “solubility change mitosis (log2)” value in the data set on HeLa Kyoto [3] is -0.124. The thermal stability score with HeLa Kyoto [4] (setting [5]) stood at 2.18; in the data set on HeLa Kyoto [4] (cell cycle stage: mitosis) it was 3.89.
